Data on 13 molecules can be found in US20260209334A1 (MAX PLANCK GESELLSCHAFT ZUR F RDERUNG DER WISSENSCHAFTEN E V, published 2026).

For assay [1], the target named is T1, human IL-17A with C-terminal Avi-tag, biotinylated, immobilized on BLI sensors (human, UniProt Q16552 24-155, biotin on the C-terminal Avi-tag (BirA)).
T1 construct: also called biotinylated IL-17A; not shown: C-terminal Avi-tag
The assay can be described thus: BLI, biotinylated IL-17A immobilized on streptavidin sensors, monovalent VHH as analyte (25, 50, 100 nM), mass transport fit.

Assay [2] concerns the target T2, human IL-17F homodimer, bacterially expressed construct (residues 39-163 with GSEGE linker) (human, UniProt Q96PD4 39-163).
T2 construct: also called IL-17F dimer
T2 chain: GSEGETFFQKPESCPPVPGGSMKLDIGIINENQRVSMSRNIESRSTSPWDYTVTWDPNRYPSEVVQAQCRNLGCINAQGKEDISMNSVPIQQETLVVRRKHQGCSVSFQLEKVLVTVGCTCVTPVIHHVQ
The assay can be described thus: BLI, biotinylated VHH immobilized on streptavidin sensors, IL-17 as analyte (10, 20, 40 nM), mass transport fit; apparent value, avidity possible.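 Further: wavelength shift (nm) signal, 800 s association then 800 s dissociation, reference from parallel sensors without VHH, avidity from immobilized VHH may lower apparent off-rates.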

Assay [3] has as its target T3, human IL-17A/F heterodimer, bacterially expressed construct (human, UniProt Q16552 40-155; Q96PD4 39-163, limits assumed).
T3 construct: IL-17A unit with N68D, IL-17F unit with N83D and C137S, both with GSEDS spacer; already in the entries
The description is as above.

Assay [4] concerns the target T4, human IL-17A homodimer, bacterially expressed construct (residues 40-155 with GSEDS spacer) (human, UniProt Q16552 40-155).
T4 chain: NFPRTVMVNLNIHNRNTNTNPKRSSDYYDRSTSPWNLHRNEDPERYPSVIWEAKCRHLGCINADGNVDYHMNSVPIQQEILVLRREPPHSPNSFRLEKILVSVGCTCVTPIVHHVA
Described as above.

Assay [5] has as its target T1, human IL-17A with C-terminal Avi-tag, …. The assay can be described thus: BLI, biotinylated IL-17A immobilized, monovalent VHH as analyte.
Assay [6] deals with T5, human IL-17F with C-terminal Avi-tag, biotinylated, immobilized on BLI sensors (human, UniProt Q96PD4 31-163, biotin on the C-terminal Avi-tag (BirA)).
T5 construct: also called biotinylated IL-17F; not shown: C-terminal Avi-tag
T5 sequence: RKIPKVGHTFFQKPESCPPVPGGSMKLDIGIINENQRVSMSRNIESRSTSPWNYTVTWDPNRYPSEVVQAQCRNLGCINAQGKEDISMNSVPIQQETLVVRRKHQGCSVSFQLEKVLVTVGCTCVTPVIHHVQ
Description: BLI, biotinylated IL-17F immobilized, monovalent VHH as analyte.

The target in assay [7] is recombinant human IL-17A/F (produced in CHO cells, R&D Systems 5837-IL) (human, UniProt Q16552 24-155; Q96PD4 31-163, limits assumed). The assay can be described thus: cell-based or functional assay.
recombinant human IL-17A/F (produced in CHO cells, R&D Systems 5837-IL), sequence (Q16552 24-155 limits assumed, chain 1 of 2, one chain of several): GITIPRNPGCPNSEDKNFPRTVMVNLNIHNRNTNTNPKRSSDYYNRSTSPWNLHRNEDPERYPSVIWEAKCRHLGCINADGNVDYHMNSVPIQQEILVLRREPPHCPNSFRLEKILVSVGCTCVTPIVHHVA
Assay [8] has as its target recombinant human IL-17A (produced in HEK cells, Proteintech HZ-1113) (human, UniProt Q16552 24-155). The assay can be described thus: cell-based or functional assay.
Assay [9] concerns the target T6, recombinant human IL-17F (produced in HEK cells, Proteintech HZ-1116) (human, UniProt Q96PD4 31-163).
T6 sequence (looked up): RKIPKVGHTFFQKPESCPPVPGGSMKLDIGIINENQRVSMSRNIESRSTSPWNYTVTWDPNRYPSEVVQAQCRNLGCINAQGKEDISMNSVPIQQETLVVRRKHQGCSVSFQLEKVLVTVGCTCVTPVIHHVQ
Description: cell-based or functional assay.

Assay [10] has as its target T5, human IL-17F with C-terminal Avi-tag, …. The assay can be described thus: BLI, biotinylated IL-17F immobilized, monovalent VHH as analyte; 2:1 heterogenous model, high affinity component.
The target in assay [11] is T1, human IL-17A with C-terminal Avi-tag, …. The assay can be described thus: BLI, biotinylated IL-17A immobilized, monovalent VHH as analyte; 2:1 heterogenous model, high affinity component.

recombinant human IL-17A (produced in HEK cells, Proteintech HZ-1113), sequence (Q16552 24-155 limits assumed): as the sequence (Q16552 24-155 limits assumed, chain 1 of 2, one chain of several) above

B1: Bm18B05 (VHH)
VHH: QVQLVESGGGLVQPGGSLRLSCAVSGRTFSSYAMGWFRRPPGKEREFVAAISWSGGDTKYADFVTDRFTISRDDAKSTVYLQMNSLKPEDTAVYYCNDMPYGLDTRMDEYEYWGQGTQVTVSS
notes: Class A, first generation
In assay [1], B1 returned a Kd of 2 nM.

B2: Re42H11 (VHH)
VHH: QVQLVESGGGLVQAGGSLRLSCAASGLTASSYAMGWFRQAPGKEREFVAAISWISGGTKYADSVKGRFTMSRDNAKKQVYLEMNSLKPEDTAVYYCNDMPYGLDTRMDEYAYWGQGTQVTVSS
notes: Class A, first generation; For the crystal it was made with a His14-ScSUMO tag that was cleaved off
The molecule B2 gave a Kd in assay [1] of 1 nM.

B3: Re42B03 with C-terminal Avi-Biotin-tag, biotinylated (VHH)
VHH: QVQLVESGGGLVQAGGSLRLSCAASGLTGSSYAMGWFRQAPGKEREFVAAISWISGGTKYTDSVKDRFTMSRDYAKKQVYLEMNSLKPEDTAVYYCNDMPYGLDTRMDEYVYWGQGTQVTVSS
modifications: biotin on the C-terminal Avi-tag (BirA)
notes: not shown: C-terminal Avi-Biotin-tag
B3: in assay [2], the Kd was at most 0.01 nM, the koff was at most 1e-07 s⁻¹ and the kon was 260000 M⁻¹ s⁻¹. In addition, in assay [3], the Kd was at most 0.01 nM, the koff was at most 1e-07 s⁻¹ and the association rate constant (kon) came to 340000 M⁻¹ s⁻¹. In [4], the Kd was at most 0.01 nM, the off-rate (koff) was at most 1e-07 s⁻¹ and the kon is 120000 M⁻¹ s⁻¹.

B4: Re42H11 with C-terminal Avi-Biotin-tag, biotinylated (VHH)
VHH: QVQLVESGGGLVQAGGSLRLSCAASGLTASSYAMGWFRQAPGKEREFVAAISWISGGTKYADSVKGRFTMSRDNAKKQVYLEMNSLKPEDTAVYYCNDMPYGLDTRMDEYAYWGQGTQVTVSS
modifications: biotin on the C-terminal Avi-tag (BirA)
notes: as for B3
As for B4, in assay [2], the Kd is at most 0.01 nM, the koff was at most 1e-07 s⁻¹ and the on-rate constant (kon) worked out at 270000 M⁻¹ s⁻¹. Moreover, in assay [3], the Kd was at most 0.01 nM, the koff is at most 1e-07 s⁻¹ and the association rate constant (kon) is 360000 M⁻¹ s⁻¹. In addition, in assay [4], the Kd was at most 0.01 nM, the off-rate constant (koff) is at most 1e-07 s⁻¹ and the kon stood at 120000 M⁻¹ s⁻¹.

B5: Re42B03 (VHH)
VHH: QVQLVESGGGLVQAGGSLRLSCAASGLTGSSYAMGWFRQAPGKEREFVAAISWISGGTKYTDSVKDRFTMSRDYAKKQVYLEMNSLKPEDTAVYYCNDMPYGLDTRMDEYVYWGQGTQVTVSS
notes: Class A, first generation
In turn, B5 returned a Kd in assay [1] of 0.7 nM.

B6: Bm42B11 (VHH)
VHH: QVQLVESGGDLVQAGGSLRLSCSVSGLRVSSYAMGWFRQAPGKEREFVAAISWVGGDTRYADSVKGRFTMSRDNAKKQVYLEMNSLKPEDTAVYYCNDMPYGMETRMDDYASWGQGTQVTVSS
notes: Class A, second generation
As to B6, the results for the Kd in assay [5] and in [6] were at most 0.01 nM and 2 nM, respectively. Moreover, the “Neutralization potency, ranking from 1 = the best to 4 (HEK-Blue IL-17 reporter cells)” value (shortened to “Neutralization potency, ranking”) in assay [7] was 1 rank; in assay [8], 1 rank; in [9] it was 2 rank.

B7: Re42B04a (VHH)
VHH: QVQLVESGGGLVQVGGSLRLSCEVSGLPVSSYAMGWFRQAPEKEREFVAAISWIGGDSRYAHFVKGRFTISRDNAKNTVHLQMDSLKPEDTAVYYCNDMPYGLDTRMDEYEYWGQGTQVTVSS
notes: Class A; Monovalent VHH
For the molecule B7, the Kd in assay [5] is 0.05 nM; in assay [1], at most 0.01 nM; in [6], 0.5 nM. The “Neutralization potency, ranking” value in assay [7] amounted to 1 rank; in [8], 1 rank; in assay [9], 2 rank.

B8: Bm42A03 (VHH)
VHH: QVQLVESGGGLVQPGGSLRLSCVASGFTFSSFAMSWYRQDPGKERKLVAAITNDGGTTFYSDLVKGRFTISRDNTKNTVYLQMNNVKPDDAAVYYCMAVRGLYGSNWYDYPFELWGQGTQVTVSS
notes: Class C, second generation
With B8, the figures for the Kd in [10] and in [11] were 0.35 nM and 0.15 nM, respectively. The “Neutralization potency, ranking” value in assay [7], in assay [8] and in assay [9] was 1 rank throughout.

B9: Bm44G10 (VHH)
VHH: QVQLVESGGGLVQPGGSLRLSCVASGFTFSSFAMSWYRQDPGRERKLVAAITNDGGTTFYSDLVKGRFTISRDNTKNTVYLQMNNVKPDDAAVYYCMAVRGLYGSNWYDYPFELWGQGTQVTVSS
notes: Class C, second generation
As for B9, the Kd in [10] is 0.35 nM; in assay [11], 0.2 nM. Besides, the results for the “Neutralization potency, ranking” value in assay [7], in assay [8] and in assay [9] were 1 rank, 1 rank and 3 rank, respectively.

B10: Bm43B02 (VHH)
VHH: QVQLVESGGGLVQAGGSLNLSCVISRRTPSGYAMGWFRQASGKEREFVAAISWIGGGAVYADSVKGRFTMSRDNAKNTVYLQMNSLKPEDTAVYYCNDMPYGLDTTMDDYDYWGQGTLVTVSS
notes: Class A, second generation
Regarding B10, the Kd in assay [5] was 0.13 nM; in assay [6], 0.075 nM. In addition, the “Neutralization potency, ranking” value in assay [7], in [8] and in assay [9] was 2 rank throughout.

B11: Bm44B11 (VHH)
VHH: QVQLVESGGGLVQAGGSLNLSCVISRRTPSGYAMGWFRQASGKEREFVAAISWIGGGAVYADSVKGRFTMSRDNAKNTVYLQMNSLKPEDTAVYYCNDMPYGLDTTMDDYDYWGQGTQVTVSS
notes: Class A, second generation
With B11, the Kd in assay [5] came out at 0.15 nM; in assay [6], 0.09 nM. Also, the “Neutralization potency, ranking” value is 1 rank in assay [7], 3 rank in assay [8] and 1 rank in assay [9].

B12: Bm45G07 (VHH)
VHH: QVQLVESGGGFVQAGGSLKLSCSVSGNTFITNHMGWFRQPPGKGREFVAGIRWSDGSTFYGDSVRGRFTISGDNAKHTLYLQMNSLKPDDTAVYYCYIDSGSDRYYGQGTLVTVSS
notes: Class D, second generation
Take B12: the Kd in assay [5] turned out to be 0.06 nM; in assay [6], 4 nM. For the same molecule, the “Neutralization potency, ranking” value was 1 rank in [7], 1 rank in [8] and 2 rank in assay [9].

B13: VHH662 (VHH)
VHH: EVQLVESGGGSVQAGDSLRLSCAASGRANSINWFGWFRQTPGKEREFVAGIRWSDAYTEYANSVKGRFTISRDNAKNTVDLQMDSLKPEDTAVYYCVLDLSTVRYWGQGTQVTVSS
notes: Control VHH of Ablynx, disclosed in WO2012156219
B13: the Kd in assay [5] was determined as 0.115 nM; in [6], 16 nM. Also, the results for the “Neutralization potency, ranking” value in [7], in assay [8] and in [9] were 1 rank, 2 rank and 4 rank, respectively.
